Data as given in patent US20180296639A1 (Hoffmann-La Roche, published 2018).

B1: glyceraldehyde-3-phosphate dehydrogenase (GAPDH), human, endogenous in human retinal pericytes (hRP) (enzyme)
chain: not shown
notes: Endogenous protein in lysates of human retinal pericytes; The proposed model says GAPDH is S-nitrosylated when it associates with Siah1
B2: E3 ubiquitin ligase seven in absentia homolog 1 (Siah1), human, endogenous in human retinal pericytes (hRP) (enzyme)
chain: MSRQTATALPTGTSKCPPSQRVPALTGTTASNNDLASLFECPVCFDYVLPPILQCQSGHLVCSNCRPKLTCCPTCRGPLGSIRNLAMEKVANSVLFPCKYASSGCEITLPHTEKADHEELCEFRPYSCPCPGASCKWQGSLDAVMPHLMHQHKSITTLQGEDIVFLATDINLPGAVDWVMMQSCFGFHFMLVLEKQEKYDGHQQFFAIVQLIGTRKQAENFAYRLELNGHRRRLTWEATPRSIHEGIATAIMNSDCLVFDTSIAQLFAENGNLGINVTISMC
notes: Endogenous protein in lysates of human retinal pericytes, immunoprecipitated with an anti-Siah1 antibody

How the values were obtained:
[1] = biological target: B2; assay: co-immunoprecipitation from hRP lysates: IP anti-Siah1, western blot anti-GAPDH
Protocol: (§1) Equal amounts of protein (1000 μg) from each sample were mixed with 10 μg of anti-Siah1 antibody overnight at 4° C. Pierce Protein A/G Magnetic Beads were pre-cleared and added to the antigen sample/antibody mixture at room temperature for 1 hr. Beads were collected with a magnetic stand and eluted using 50 μl 4× SDS-PAGE reducing sample buffer at 100° C. for 10 mins. The immuno-complexes were then subjected to Western blot analysis. Siah1-depleted samples served as controls for total pull down of Siah1 from each lysate.

[2] = biological target: B1; assay: as above
Protocol: as §1

Binder | fold increase in GAPDH/Siah1 association (high glucose against osmotic control) [1] | binding result [2]
B1 | 1.5 fold | –
B2 | – | binds
